Earlier results in PMC2726620 (Journal of medicinal chemistry, 2008).
pIC50, pKi: −log10 of the molar value. Non-standard residues stand in square brackets, D forms with d. Residues, ends and D or L forms follow the SMILES beside them. No end group written: not given here. *: point of attachment. Fmoc = O=C(OCC1c2ccccc2-c2ccccc21)*; NMePhg = CN[C@H](C(=O)O)c1ccccc1; Cha = N[C@@H](CC1CCCCC1)C(=O)O

Key:
mR1 dimer = conditions: read-out: Ki for mR1 dimer; from directed minilibrary screening studies
ScRR = target: T1, ScRR (Saccharomyces cerevisiae, UniProt P21524); conditions: read-out: IC50, ScRR; footnote *: IC50 values were reported in [30]
T1 sequence (P21524 1-888): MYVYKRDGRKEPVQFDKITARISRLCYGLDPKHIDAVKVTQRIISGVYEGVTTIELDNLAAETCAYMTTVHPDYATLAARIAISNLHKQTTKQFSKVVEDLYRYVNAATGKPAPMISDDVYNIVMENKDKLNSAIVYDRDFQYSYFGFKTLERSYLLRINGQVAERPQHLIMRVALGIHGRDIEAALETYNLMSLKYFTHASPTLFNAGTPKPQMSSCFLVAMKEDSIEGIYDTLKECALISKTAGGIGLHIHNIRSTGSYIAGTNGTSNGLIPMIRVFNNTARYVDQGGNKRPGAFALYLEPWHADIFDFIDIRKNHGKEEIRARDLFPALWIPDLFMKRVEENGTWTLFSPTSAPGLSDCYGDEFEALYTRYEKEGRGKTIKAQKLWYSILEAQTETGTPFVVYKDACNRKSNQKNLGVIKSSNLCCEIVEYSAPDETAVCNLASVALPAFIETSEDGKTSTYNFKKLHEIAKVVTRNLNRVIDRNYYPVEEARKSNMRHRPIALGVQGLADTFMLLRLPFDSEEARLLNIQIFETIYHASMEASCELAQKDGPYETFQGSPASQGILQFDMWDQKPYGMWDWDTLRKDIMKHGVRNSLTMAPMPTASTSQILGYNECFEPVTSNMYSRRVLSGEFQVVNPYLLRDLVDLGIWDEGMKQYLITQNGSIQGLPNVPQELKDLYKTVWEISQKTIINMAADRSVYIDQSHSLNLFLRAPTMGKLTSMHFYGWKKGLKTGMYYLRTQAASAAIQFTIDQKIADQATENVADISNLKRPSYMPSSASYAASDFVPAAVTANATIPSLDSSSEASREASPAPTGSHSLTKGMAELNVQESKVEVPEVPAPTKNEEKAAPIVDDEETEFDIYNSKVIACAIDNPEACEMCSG

[1] = target: EcR2 octapeptide C-terminal octapeptide (Escherichia coli) (UniProt P69924)
[2] = target: EcR2 20-mer peptide C-terminal 20-mer (Escherichia coli) (UniProt P69924)
EcR2 20-mer peptide C-terminal 20-mer (Escherichia coli), sequence (P69924 357-376): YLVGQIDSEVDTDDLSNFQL

EcR2 octapeptide C-terminal octapeptide (Escherichia coli), sequence (P69924 whole entry, looked up): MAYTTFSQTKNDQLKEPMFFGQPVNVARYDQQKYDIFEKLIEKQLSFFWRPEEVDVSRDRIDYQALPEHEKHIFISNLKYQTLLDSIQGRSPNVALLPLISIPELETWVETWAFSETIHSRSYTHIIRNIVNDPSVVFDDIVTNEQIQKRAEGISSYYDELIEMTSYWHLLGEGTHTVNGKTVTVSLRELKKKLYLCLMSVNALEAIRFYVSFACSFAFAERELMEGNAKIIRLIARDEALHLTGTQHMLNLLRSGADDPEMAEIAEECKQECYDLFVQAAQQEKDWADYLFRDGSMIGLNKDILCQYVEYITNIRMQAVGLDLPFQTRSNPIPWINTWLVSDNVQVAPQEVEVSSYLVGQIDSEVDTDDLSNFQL

CC(C)C[C@H](NC(=O)[C@H](c1ccccc1)N(C)C(=O)OCC1c2ccccc2-c2ccccc21)C(=O)N[C@@H](CC(=O)O)C(=O)N[C@@H](CC1CCCCC1)C(=O)N[C@@H](CC(=O)O)C(=O)N[C@@H](Cc1ccccc1)C(=O)O [P6, ^1Fmoc(Me)PhgLDChaDF^7] (Fmoc-[NMePhg]LD[Cha]DF-OH; C-terminus assumed)
pKi (mR1 dimer): 6.51

^1FTFNEDF^7 (not fully specified; printed as 1FTFNEDF7) [ScR2]
pIC50 (ScRR): 4.36

^2NFDDDF^7 (not fully specified; printed as 2NFDDDF7) [ScR4]
pIC50 (ScRR): 4.52

ribonucleotide reductase R1 (EcR1) (from UniProt P00452)
pKi [1]: 3.43 | pKi [2]: 4.70
